Measured values as given in the supplement of paper PMC6755084.

These sequences were tested on F1*sub RNA substrate (template-directed ligation) (assay: fraction ligated after 30 min (ligated reads / total reads); higher = more ligase activity; sequences stand for … in GAGACCGCAACTGAAAAGTTGT…AGTTCTGCACGTAGAAGCAAAAGGC). Settings: 42 °C.
Outline: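 Ligase ribozyme variants were made from oligo-pool templates by PCR amplification, T7 transcription and gel purification. After gel separation, ligated and unligated bands were reverse transcribed with barcoded primers and sequenced on a MiSeq, with core bases filtered at quality ≥20. The fraction ligated for each variant was the number of ligated reads divided by total reads.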

Sequence | fraction ligated
TATACTTGTCGAAGACACTTTGGATGGGTTGA [2d76] | 0.761
TATACTTGTCGAAGACACTTTGGATGGTTGA [3d867] | 0.0528
TATACTTGTCGAAGACACTTTGGTGGGTTGA [3d865] | 0.0282
TATACTTGTCGAAGACATTTGGATGGGTTGA [3d862] | 0.762
TATACTTGTCGAAGACCTTTGGATGGGTTGA [3d861] | 0.478
TATACTTGTCGAAGCACTTTGGATGGGTTGA [3d859] | 0.703
TATACTTGTCGAGACACTTTGGATGGGTTGA [3d857] | 0.704
TATACTTGTCGTAAAACTTTGGATGGGTTGA [3d883] | 0.799
TATACTTGTCGTAAACACTTGGATGGGTTGA [3d886] | 0.227
TATACTTGTCGTAAACACTTTGATGGGTTGA [3d887] | 0.182
TATACTTGTCGTAAACACTTTGGAGGGTTGA [3d889] | 0.0111
TATACTTGTCGTAAACACTTTGGATGGGTTA [3d891] | 0.00216
TATACTTGTCGTAAACACTTTGGATGGGTTG [3d892] | 0.0953
TATACTTGTCGTAAACACTTTGGATGGGTTGA [2d78] | 0.493
TATACTTGTCGTAAACACTTTGGATGGTTGA [3d890] | 0.0192
TATACTTGTCGTAAACACTTTGGTGGGTTGA [3d888] | 0.019
TATACTTGTCGTAAACATTTGGATGGGTTGA [3d885] | 0.78
TATACTTGTCGTAAACCTTTGGATGGGTTGA [3d884] | 0.494
TATACTTGTCGTAACACTTTGGATGGGTTGA [3d871] | 0.27
TATACTTGTCGTAAGAACTTGGATGGGTTGA [3d904] | 0.717
TATACTTGTCGTAAGAACTTTGATGGGTTGA [3d905] | 0.794
TATACTTGTCGTAAGAACTTTGGAGGGTTGA [3d907] | 0.032
TATACTTGTCGTAAGAACTTTGGATGGGTTA [3d909] | 0.0459

Sequence | fraction ligated
TATACTTGTCGTAAGAACTTTGGATGGGTTG [3d910] | 0.724
TATACTTGTCGTAAGAACTTTGGATGGGTTGA [2d80] | 0.786
TATACTTGTCGTAAGAACTTTGGATGGTTGA [3d908] | 0.0441
TATACTTGTCGTAAGAACTTTGGTGGGTTGA [3d906] | 0.0323
TATACTTGTCGTAAGAATTTGGATGGGTTGA [3d903] | 0.769
TATACTTGTCGTAAGACACTGGATGGGTTGA [3d925] | 0.74
TATACTTGTCGTAAGACACTTGATGGGTTGA [3d926] | 0.765
TATACTTGTCGTAAGACACTTGGAGGGTTGA [3d928] | 0.0325
TATACTTGTCGTAAGACACTTGGATGGGTTA [3d930] | 0.0948
TATACTTGTCGTAAGACACTTGGATGGGTTG [3d931] | 0.756
TATACTTGTCGTAAGACACTTGGATGGGTTGA [2d83] | 0.785
TATACTTGTCGTAAGACACTTGGATGGTTGA [3d929] | 0.0929
TATACTTGTCGTAAGACACTTGGTGGGTTGA [3d927] | 0.049
TATACTTGTCGTAAGACACTTTATGGGTTGA [3d932] | 0.0481
TATACTTGTCGTAAGACACTTTGAGGGTTGA [3d934] | 0.0304
TATACTTGTCGTAAGACACTTTGATGGGTTA [3d936] | 0.0174
TATACTTGTCGTAAGACACTTTGATGGGTTG [3d937] | 0.537
TATACTTGTCGTAAGACACTTTGATGGGTTGA [2d84] | 0.794
TATACTTGTCGTAAGACACTTTGATGGTTGA [3d935] | 0.0546
TATACTTGTCGTAAGACACTTTGGAGGGTTA [3d943] | 0.00392
TATACTTGTCGTAAGACACTTTGGAGGGTTG [3d944] | 0.00819
TATACTTGTCGTAAGACACTTTGGAGGGTTGA [2d86] | 0.0419
TATACTTGTCGTAAGACACTTTGGAGGTTGA [3d942] | 0.00359

Sequence | fraction ligated
TATACTTGTCGTAAGACACTTTGGATGGGTT [3d947] | 0.00683
TATACTTGTCGTAAGACACTTTGGATGGGTTA [2d88] | 0.0592
TATACTTGTCGTAAGACACTTTGGATGGGTTG [2d89] | 0.733
TATACTTGTCGTAAGACACTTTGGATGGGTTGA [1d4] | 0.791
TATACTTGTCGTAAGACACTTTGGATGGTTA [3d945] | 0.0396
TATACTTGTCGTAAGACACTTTGGATGGTTG [3d946] | 0.0597
TATACTTGTCGTAAGACACTTTGGATGGTTGA [2d87] | 0.127
TATACTTGTCGTAAGACACTTTGGGGGTTGA [3d938] | 0.0526
TATACTTGTCGTAAGACACTTTGGTGGGTTA [3d940] | 0.00259
TATACTTGTCGTAAGACACTTTGGTGGGTTG [3d941] | 0.0139
TATACTTGTCGTAAGACACTTTGGTGGGTTGA [2d85] | 0.0569
TATACTTGTCGTAAGACACTTTGGTGGTTGA [3d939] | 0.00845
TATACTTGTCGTAAGACACTTTGTGGGTTGA [3d933] | 0.0152
TATACTTGTCGTAAGACATTGGATGGGTTGA [3d918] | 0.786
TATACTTGTCGTAAGACATTTGATGGGTTGA [3d919] | 0.735
TATACTTGTCGTAAGACATTTGGAGGGTTGA [3d921] | 0.0163
TATACTTGTCGTAAGACATTTGGATGGGTTA [3d923] | 0.0964
TATACTTGTCGTAAGACATTTGGATGGGTTG [3d924] | 0.714
TATACTTGTCGTAAGACATTTGGATGGGTTGA [2d82] | 0.751
TATACTTGTCGTAAGACATTTGGATGGTTGA [3d922] | 0.0978
TATACTTGTCGTAAGACATTTGGTGGGTTGA [3d920] | 0.0527
TATACTTGTCGTAAGACCTTGGATGGGTTGA [3d911] | 0.777
TATACTTGTCGTAAGACCTTTGATGGGTTGA [3d912] | 0.706

Sequence | fraction ligated
TATACTTGTCGTAAGACCTTTGGAGGGTTGA [3d914] | 0.0249
TATACTTGTCGTAAGACCTTTGGATGGGTTA [3d916] | 0.059
TATACTTGTCGTAAGACCTTTGGATGGGTTG [3d917] | 0.719
TATACTTGTCGTAAGACCTTTGGATGGGTTGA [2d81] | 0.746
TATACTTGTCGTAAGACCTTTGGATGGTTGA [3d915] | 0.0819
TATACTTGTCGTAAGACCTTTGGTGGGTTGA [3d913] | 0.0382
TATACTTGTCGTAAGACTTTGGATGGGTTGA [3d893] | 0.758
TATACTTGTCGTAAGCACTTGGATGGGTTGA [3d896] | 0.645
TATACTTGTCGTAAGCACTTTGATGGGTTGA [3d897] | 0.703
TATACTTGTCGTAAGCACTTTGGAGGGTTGA [3d899] | 0.0271
TATACTTGTCGTAAGCACTTTGGATGGGTTA [3d901] | 0.0196
TATACTTGTCGTAAGCACTTTGGATGGGTTG [3d902] | 0.502
TATACTTGTCGTAAGCACTTTGGATGGGTTGA [2d79] | 0.778
TATACTTGTCGTAAGCACTTTGGATGGTTGA [3d900] | 0.0214
TATACTTGTCGTAAGCACTTTGGTGGGTTGA [3d898] | 0.025
TATACTTGTCGTAAGCATTTGGATGGGTTGA [3d895] | 0.747
TATACTTGTCGTAAGCCTTTGGATGGGTTGA [3d894] | 0.68
TATACTTGTCGTAGAACTTTGGATGGGTTGA [3d873] | 0.831
TATACTTGTCGTAGACACTTGGATGGGTTGA [3d876] | 0.61
TATACTTGTCGTAGACACTTTGATGGGTTGA [3d877] | 0.36
TATACTTGTCGTAGACACTTTGGAGGGTTGA [3d879] | 0.0209
TATACTTGTCGTAGACACTTTGGATGGGTTA [3d881] | 0.00736
TATACTTGTCGTAGACACTTTGGATGGGTTG [3d882] | 0.232

Sequence | fraction ligated
TATACTTGTCGTAGACACTTTGGATGGGTTGA [2d77] | 0.67
TATACTTGTCGTAGACACTTTGGATGGTTGA [3d880] | 0.0359
TATACTTGTCGTAGACACTTTGGTGGGTTGA [3d878] | 0.0282
TATACTTGTCGTAGACATTTGGATGGGTTGA [3d875] | 0.759
TATACTTGTCGTAGACCTTTGGATGGGTTGA [3d874] | 0.616
TATACTTGTCGTAGCACTTTGGATGGGTTGA [3d872] | 0.787
TATACTTGTCGTGACACTTTGGATGGGTTGA [3d870] | 0.708
TATACTTGTCTAAACACTTTGGATGGGTTGA [3d845] | 0.791
TATACTTGTCTAAGAACTTTGGATGGGTTGA [3d847] | 0.765
TATACTTGTCTAAGACACTTGGATGGGTTGA [3d850] | 0.766
TATACTTGTCTAAGACACTTTGATGGGTTGA [3d851] | 0.719
TATACTTGTCTAAGACACTTTGGAGGGTTGA [3d853] | 0.0271
TATACTTGTCTAAGACACTTTGGATGGGTTA [3d855] | 0.0424
TATACTTGTCTAAGACACTTTGGATGGGTTG [3d856] | 0.633
TATACTTGTCTAAGACACTTTGGATGGGTTGA [2d75] | 0.797
TATACTTGTCTAAGACACTTTGGATGGTTGA [3d854] | 0.0769
TATACTTGTCTAAGACACTTTGGTGGGTTGA [3d852] | 0.0368
TATACTTGTCTAAGACATTTGGATGGGTTGA [3d849] | 0.811
TATACTTGTCTAAGACCTTTGGATGGGTTGA [3d848] | 0.481
TATACTTGTCTAAGCACTTTGGATGGGTTGA [3d846] | 0.779
TATACTTGTCTAGACACTTTGGATGGGTTGA [3d844] | 0.732
